These results are taken from paper doi:10.1101/2023.02.27.530350 (bioRxiv, 2023).

Where two headings read alike, the source gives them in different places.

Data set [1] deals with T1, WalR (Staphylococcus aureus, UniProt Q2FKN8 1-233). Description: EMSA. Background: A gel shift assay detects complexes by their altered migration in electrophoresis.
Data set [2] has as its target T1, WalR. The experiment in a line: EMSA. The source holds these as a separate data set.
Data set [3] concerns the target T2, VraR (Staphylococcus aureus, UniProt Q2FX09 1-209).
T2 sequence: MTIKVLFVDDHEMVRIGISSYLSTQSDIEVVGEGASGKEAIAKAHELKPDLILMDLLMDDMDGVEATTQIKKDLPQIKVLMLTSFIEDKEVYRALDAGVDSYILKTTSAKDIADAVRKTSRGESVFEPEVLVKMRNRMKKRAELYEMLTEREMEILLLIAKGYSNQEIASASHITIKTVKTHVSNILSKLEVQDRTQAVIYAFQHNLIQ
Description: EMSA.

The target of data set [4] is T3, WalK-LgBIT (native WalK, sensor histidine kinase) (Staphylococcus aureus, UniProt Q2FKN7 1-608).
T3 sequence (looked up): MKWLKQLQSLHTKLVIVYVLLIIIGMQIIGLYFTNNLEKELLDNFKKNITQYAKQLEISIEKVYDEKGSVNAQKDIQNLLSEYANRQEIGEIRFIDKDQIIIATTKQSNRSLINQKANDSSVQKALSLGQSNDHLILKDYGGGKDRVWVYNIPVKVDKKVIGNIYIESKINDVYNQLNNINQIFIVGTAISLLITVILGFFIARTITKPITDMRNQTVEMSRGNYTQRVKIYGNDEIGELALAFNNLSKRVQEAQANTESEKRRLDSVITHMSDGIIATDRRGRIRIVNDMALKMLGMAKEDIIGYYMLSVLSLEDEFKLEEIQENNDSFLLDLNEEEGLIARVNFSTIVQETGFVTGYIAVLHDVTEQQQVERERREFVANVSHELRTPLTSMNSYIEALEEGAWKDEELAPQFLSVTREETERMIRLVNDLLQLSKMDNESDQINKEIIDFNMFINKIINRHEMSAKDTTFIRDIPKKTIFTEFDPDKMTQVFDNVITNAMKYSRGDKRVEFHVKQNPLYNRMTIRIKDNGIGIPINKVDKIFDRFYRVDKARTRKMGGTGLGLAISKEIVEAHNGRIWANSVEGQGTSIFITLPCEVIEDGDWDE
The experiment in a line: split reporter.

For data set [5], the target named is T1, WalR. The experiment in a line: EMSA. This is another data set of the same source.
Data set [6] concerns the target T2, VraR. The experiment in a line: EMSA. The source holds these as a separate data set.

T1 sequence (Q2FKN8 whole entry): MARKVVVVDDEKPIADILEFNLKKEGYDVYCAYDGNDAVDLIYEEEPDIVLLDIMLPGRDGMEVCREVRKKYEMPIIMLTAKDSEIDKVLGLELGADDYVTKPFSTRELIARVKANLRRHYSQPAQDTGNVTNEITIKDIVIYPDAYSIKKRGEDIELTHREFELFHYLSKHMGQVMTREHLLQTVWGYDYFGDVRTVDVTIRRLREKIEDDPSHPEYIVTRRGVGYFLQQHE

B1: ssaA promoter EMSA probe (dsDNA)
DNA 1: AAAACTGAATGTTTCGAAAATAAGTCTGTTACAAATTTGTAATATTACTGAAAATTCTAAATGTATATTT
DNA 2: AAATATACATTTAGAATTTTCAGTAATATTACAAATTTGTAACAGACTTATTTTCGAAACATTCAGTTTT
On to B1, for which the binding result with WalR [1] was “binds”.

B2: sle1 promoter EMSA probe (dsDNA)
DNA 1: TTTGATGATACAGTATATGATTTTTTTGTAATCATAATGTCATCAAACATCAACCTATTATACATAATAA
DNA 2: TTATTATGTATAATAGGTTGATGTTTGATGACATTATGATTACAAAAAAATCATATACTGTATCATCAAA
For the molecule B2, the binding result with WalR [2] is reported as “binds”.

B3: ltaS promoter EMSA probe (WalR site) (dsDNA)
DNA 1: ATATTTATTAATTGAGCTATGCTTATTATTACAATTTGATTACAAATTTTAAATTTGTTAATTGAATGAT
DNA 2: ATCATTCAATTAACAAATTTAAAATTTGTAATCAAATTGTAATAATAAGCATAGCTCAATTAATAAATAT
In the case of B3, the binding result in the data set with WalR [2] and in the data set with VraR [3] was “binds” in each case.

B4: WalR_(T101A)-SmBIT (natural protein, Staphylococcus aureus, UniProt Q2FKN8 1-233, looked up)
chain: MARKVVVVDDEKPIADILEFNLKKEGYDVYCAYDGNDAVDLIYEEEPDIVLLDIMLPGRDGMEVCREVRKKYEMPIIMLTAKDSEIDKVLGLELGADDYVAKPFSTRELIARVKANLRRHYSQPAQDTGNVTNEITIKDIVIYPDAYSIKKRGEDIELTHREFELFHYLSKHMGQVMTREHLLQTVWGYDYFGDVRTVDVTIRRLREKIEDDPSHPEYIVTRRGVGYFLQQHE
For the molecule B4, the “fold change of the maximal level of interaction against native WalK/WalR” value in data set [4] was determined as 1.5 fold.

B5: ltaS promoter EMSA probe (VraR site) (dsDNA)
DNA 1: CATTAGGAGGAAATTATTTGCATCGGACTCGAGTATGAGCTACGTACCAAATATTATTTCATCATTTCTA
DNA 2: TAGAAATGATGAAATAATATTTGGTACGTAGCTCATACTCGAGTCCGATGCAAATAATTTCCTCCTAATG
For B5, the binding result with WalR [5] is given as “no binding”; with VraR [6], “binds”.

B6: sasD promoter EMSA probe (dsDNA)
DNA 1: CTTTTGTAATCGTATGATAATGTAAATGTAATCAAATTGTAATATAAGGGGACAAGACAATGAAAAAATT
DNA 2: AATTTTTTCATTGTCTTGTCCCCTTATATTACAATTTGATTACATTTACATTATCATACGATTACAAAAG
For B6, the binding result with WalR [2] is “binds”.

B7: isaA promoter EMSA probe (dsDNA)
DNA 1: AAATAACACTTGATATTGTAATGTTTTGTAAAGAAAGTGTAATTTACTGGCTGGTTTTTTGTGATATAGT
DNA 2: ACTATATCACAAAAAACCAGCCAGTAAATTACACTTTCTTTACAAAACATTACAATATCAAGTGTTATTT
For B7, the binding result in the data set with WalR [2] is “binds”.

B8: SAUSA300_0602 promoter EMSA probe (dsDNA)
DNA 1: GAAATATAAAAGTAGTAATTATTATTTGTAATATAATTGTAATATGACTGTTGTTTTAGAAATGATTGTT
DNA 2: AACAATCATTTCTAAAACAACAGTCATATTACAATTATATTACAAATAATAATTACTACTTTTATATTTC
As to B8, in the data set with WalR [2], the binding result was “binds”.
